The data set deals with the molecule itself. The data set can be described thus: SEC; data not shown; 10 uM AGTmi E274D with 100 uM PLP, Sephacryl S-300 10/600 column, 100 mM potassium phosphate buffer pH 7.4, elution volume compared with molecular weight standards.

B1: alanine: glyoxylate aminotransferase, minor allele variant, E274D (enzyme, human)
chain: MASHKLLVTPLKALLKPLSIPNQLLLGPGPSNLPPRIMAAGGLQMIGSMSKDMYQIMDEIKEGIQYVFQTRNPLTLVISGSGHCALEAALVNVLEPGDSFLVGANGIWGQRAVDIGERIGARVHPMTKDPGGHYTLQEVEEGLAQHKPVLLFLTHGESSTGVLQPLDGFGELCHRYKCLLLVDSVASLGGTPLYMDRQGIDILYSGSQKALNAPPGTSLISFSDKAKKKMYSRKTKPFSFYLDIKWLANFWGCDDQPRMYHHTIPVISLYSLRDSLALIAEQGLENSWRQHREAAAYLHGRLQALGLQLFVKDPALRLPTVTTVAVPAGYDWRDIVSYVMDHFDIEIMGGLGPSTGKVLRIGLLGCNATRENVDRVTEALRAALQHCPKKKL
notes: alanine: glyoxylate aminotransferase (AGT), human, minor allele (P11L, I340M) with the PH1-associated mutation E274D; SEC was run in the presence of 100 uM PLP (holo form); E274D was found in patients on the minor allele; also called AGTmi E274D; AGTmi^E274D; source: bacteria (pET30a), purified
On to B1, for which the stoichiometry N – broadly, the number of molecules, sites or subunits per partner or assembly – stood at 2.
